Tests used:
Experiment in all cases: cleavage_in_vitro
[1] = system: AvaII; conditions: DNA strand 100% cleaved; NEBuffer 4 (Mg2+), 37 C, 4 h; Table 1 does not name the oligos
[2] = system: BtsI; conditions: DNA strand 100% cleaved
[3] = system: Sau3AI; conditions: DNA strand 0% cleaved
[4] = system: SfaNI; conditions: DNA strand 100% cleaved
[5] = system: Cac8I; conditions: DNA strand 100% cleaved; NEBuffer 3, 37 C, 4 h; Table 1 does not name the oligos

For “AAAGCUAAGCGGACCGAGUCGACUGCAUCGUCAUGAAAAAA / TTTTTTCATGACGATGCAGTCGACTCGGTCCGCTTAGCTTT [A/B RNA/DNA duplex]”, the activity (% RNA strand cleaved) [1] was 100.
Work on BtsI site RNA/DNA duplex yielded an activity (% RNA strand cleaved) [2] of 70.
For Sau3AI site RNA/DNA duplex, the activity (% RNA strand cleaved) [3] was 80.
For SfaNI site RNA/DNA duplex, the activity (% RNA strand cleaved) [4] was 100.
Work on “UAAAGGCGCGCCCGCAUGCUUUA / TAAAGCATGCGGGCGCGCCTTTA [I/L RNA/DNA duplex]” yielded an activity (% RNA strand cleaved) [5] of 100.

— patent publication US20050053990
